Assay results as given in the Human Domainome abundance scans (Beltran et al. 2025).
± gives the uncertainty stated by the source.

B1: Telomeric repeat-binding factor 2, residues 489 to 542; numbered along this chain, Q15554 (parent)
chain: KQKWTVEESEWVKAGVQKYGEGNWAAISKNYPFVNRTAVMIKDRWRTMKRLGMN

Variants of: B1
Test: abundance fitness (aPCA) (normalised: wild type 0, dead -1); higher = more abundant; growth selection in yeast, the domain comes from the species named
Conditions: Homo sapiens

| Variant | abundance fitness |
| --- | --- |
| K42N | -0.417 ± 0.18 |
| K42S | -0.16 ± 0.076 |
| K42W | -0.653 ± 0.13 |
| K42A | -0.141 ± 0.065 |
| K42F | -0.544 ± 0.27 |
| K42M | -0.207 ± 0.057 |
| K42P | -0.961 ± 0.19 |
| K42L | -0.571 ± 0.071 |
| K42G | -0.309 ± 0.069 |
| K42R | 0.035 ± 0.041 |
| K42T | -0.614 ± 0.18 |
| K42H | -0.881 ± 0.42 |
| K42D | -0.457 ± 0.23 |
| K42V | -0.77 ± 0.082 |
| K42C | -0.124 ± 0.12 |
| K42Y | -0.448 ± 0.2 |
| K42E | -0.016 ± 0.081 |
| D43M | -0.368 ± 0.083 |
| D43R | -0.072 ± 0.074 |
| D43Q | -0.07 ± 0.11 |
| D43N | -0.061 ± 0.1 |
| D43P | -0.942 ± 0.27 |
| D43E | -0.046 ± 0.056 |
| D43I | -0.866 ± 0.24 |

| Variant | abundance fitness |
| --- | --- |
| D43C | -0.449 ± 0.091 |
| D43W | -0.502 ± 0.073 |
| D43G | -0.672 ± 0.097 |
| D43K | 0.011 ± 0.11 |
| D43Y | -0.364 ± 0.12 |
| D43F | -0.68 ± 0.17 |
| D43S | -0.204 ± 0.078 |
| P32R | -0.4 ± 0.042 |
| P32H | -0.574 ± 0.043 |
| P32K | -0.316 ± 0.039 |
| P32M | -0.565 ± 0.04 |
| P32V | -0.747 ± 0.04 |
| P32Y | -0.864 ± 0.068 |
| P32N | -0.294 ± 0.052 |
| P32L | -0.726 ± 0.037 |
| P32S | -0.361 ± 0.037 |
| P32G | -0.429 ± 0.037 |
| P32A | -0.327 ± 0.038 |
| P32T | -0.532 ± 0.042 |
| P32Q | -0.501 ± 0.044 |
| P32C | -0.593 ± 0.053 |
| P32I | -0.774 ± 0.069 |
| P32E | -0.611 ± 0.045 |
| P32F | -0.746 ± 0.045 |

| Variant | abundance fitness |
| --- | --- |
| I41C | -0.692 ± 0.15 |
| I41T | -0.786 ± 0.28 |
| I41G | -1.06 ± 0.1 |
| I41S | -1.13 ± 0.38 |
| I41R | -1.16 ± 0.15 |
| I41F | -0.616 ± 0.096 |
| I41D | -0.673 ± 0.16 |
| I41E | -0.975 ± 0.17 |
| I41N | -0.945 ± 0.15 |
| I41A | -1.02 ± 0.12 |
| I41W | -1.01 ± 0.34 |
| I41V | -0.392 ± 0.056 |
| W45G | -0.982 ± 0.12 |
| W45E | -0.571 ± 0.047 |
| W45C | -0.81 ± 0.13 |
| W45F | -0.747 ± 0.2 |
| W45I | -0.65 ± 0.074 |
| W45A | -0.691 ± 0.06 |
| Y31D | -0.499 ± 0.28 |
| Y31R | -0.626 ± 0.11 |
| Y31M | -0.431 ± 0.1 |
| Y31E | -0.757 ± 0.12 |
| Y31C | -0.49 ± 0.16 |
| Y31F | -0.417 ± 0.26 |

| Variant | abundance fitness |
| --- | --- |
| Y31G | -0.499 ± 0.074 |
| Y31N | -0.539 ± 0.056 |
| Y31W | -0.444 ± 0.1 |
| Y31Q | -0.751 ± 0.05 |
| Y31P | -0.389 ± 0.22 |
| Y31K | -0.535 ± 0.13 |
| Y31S | -0.729 ± 0.069 |
| Y31V | -0.496 ± 0.11 |
| Y31T | -0.727 ± 0.051 |
| Y31H | -0.539 ± 0.094 |
| N30L | -0.287 ± 0.064 |
| N30P | -0.963 ± 0.18 |
| N30Q | -0.092 ± 0.18 |
| N30T | -0.338 ± 0.22 |
| N30A | -0.042 ± 0.071 |
| N30R | -0.508 ± 0.11 |
| N30Y | -0.284 ± 0.082 |
| N30M | -0.314 ± 0.17 |
| N30S | -0.113 ± 0.058 |
| N30E | 0.077 ± 0.12 |
| N30K | -0.16 ± 0.088 |
| N30D | -0.474 ± 0.18 |
| N30F | -0.422 ± 0.2 |
| N30W | -0.431 ± 0.092 |

| Variant | abundance fitness |
| --- | --- |
| N30C | -0.402 ± 0.099 |
| I27W | -0.919 ± 0.24 |
| I27P | -0.87 ± 0.41 |
| I27H | -0.235 ± 0.26 |
| I27G | -0.901 ± 0.11 |
| I27T | -0.533 ± 0.28 |
| I27R | -0.788 ± 0.055 |
| I27A | -0.862 ± 0.24 |
| I27E | -0.938 ± 0.26 |
| I27L | -0.457 ± 0.1 |
| I27M | -0.561 ± 0.22 |
| I27S | -1.12 ± 0.23 |
| I27F | -0.606 ± 0.35 |
| I27K | -0.757 ± 0.09 |
| I27V | -0.545 ± 0.13 |
| A25E | 0.074 ± 0.11 |
| A25N | 0.015 ± 0.13 |
| A25K | -0.448 ± 0.12 |
| A25D | 0.472 ± 0.24 |
| A25C | -0.091 ± 0.15 |
| A25I | -0.217 ± 0.39 |
| A25W | -0.146 ± 0.041 |
| A25H | -0.127 ± 0.22 |
| A25M | -0.018 ± 0.13 |

| Variant | abundance fitness |
| --- | --- |
| A25Q | 0.08 ± 0.1 |
| A25G | -0.13 ± 0.066 |
| A25L | -0.17 ± 0.065 |
| A25Y | -0.235 ± 0.1 |
| A25R | -0.373 ± 0.12 |
| A25P | -0.663 ± 0.27 |
| A25F | 0.045 ± 0.13 |
| V34A | -0.16 ± 0.044 |
| V34Y | -0.331 ± 0.17 |
| V34D | -0.711 ± 0.16 |
| V34E | 0.005 ± 0.044 |
| V34T | 0.193 ± 0.12 |
| V34P | -0.49 ± 0.092 |
| V34M | 0.208 ± 0.11 |
| V34L | -0.057 ± 0.071 |
| V34K | -0.304 ± 0.21 |
| V34H | 0.032 ± 0.11 |
| V34C | -0.123 ± 0.053 |
| V34W | -0.366 ± 0.12 |
| V34F | -0.129 ± 0.064 |
| V34G | -0.34 ± 0.043 |
| V34Q | 0.134 ± 0.17 |
| V34S | -0.172 ± 0.04 |
| V34I | -0.066 ± 0.093 |

| Variant | abundance fitness |
| --- | --- |
| V34N | -0.564 ± 0.22 |
| W24E | -0.585 ± 0.16 |
| W24S | -0.226 ± 0.15 |
| W24Q | -0.442 ± 0.34 |
| W24D | -0.72 ± 0.2 |
| W24R | -1.15 ± 0.18 |
| W24A | -0.932 ± 0.49 |
| W24C | -0.982 ± 0.34 |
| W24G | -0.596 ± 0.14 |
| W24T | -0.705 ± 0.21 |
| W24K | -0.788 ± 0.48 |
| W24L | -0.858 ± 0.18 |
| W24P | -0.89 ± 0.36 |
| W24F | -0.642 ± 0.23 |
| W24V | -1.08 ± 0.23 |
| W24I | -0.291 ± 0.27 |
| M40E | 0.17 ± 0.086 |
| M40P | -0.935 ± 0.1 |
| M40S | -0.051 ± 0.077 |
| M40F | 0.11 ± 0.12 |
| M40A | -0.015 ± 0.058 |
| M40K | -0.377 ± 0.13 |
| M40T | -0.52 ± 0.058 |
